Test results reported in the supplement of paper PMC10065799, “High-throughput profiling of sequence recognition by tyrosine kinases and SH2 domains using bacterial peptide display” (eLife, 2023).

Test system: AncSZ
Experiment: phosphorylation enrichment, bacterial display (enrichment ratio); higher = better substrate or ligand; peptides without Tyr show the background
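Further: 11-residue human phosphosite peptides and single-mutation variants displayed on the E. coli surface, counted by deep sequencing, each peptide's frequency after selection divided by its frequency in the unselected input library; frequency after pTyr selection over input frequency; kinase dosed for 20-30% of maximal phosphorylation in three min.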

Sequence | phosphorylation enrichment
VECHLYFTQPK [AKR1D1_Y199_P198L] | 1.42
AAPAAYDAADT [GAMT_Y27] | 1.1
VVCKNYAEAKD [ALB_Y343_D338V] | 0.932
KRTFEYEADKN [DENND2B_Y396] | 0.947
CRWKRYQRSHD [GDPD5_Y30] | 0.675
FNNFGYGSDGF [HNRNPH3_Y161_N163S_YF] | 0.856
WFKKFYDANCD [MAPRE2_Y158_Y162C] | 1
LIGWRYDDPEV [HSPA9_Y128_R126W] | 0.984
KITVIYDGACQ [VWDE_Y1035] | 1.1
CQNRFYDAKVR [FKBP6_Y188_R183C] | 0.794
ATVQNYLPKCI [A2M_Y817_L815Q] | 0.626
RHPEVYHHLGV [NVL_Y290] | 0.778
LQRCKNSHMEP [TEX45_Y434_Y434N] | 0.599
GKVFVYHGSSL [ITGA7_Y458_I457V] | 1.03
KQCSDYARELE [MYH3_Y1140_R1137C] | 1.23
LDLSYYTTSSS [EMD_Y182_P183T] | 1.84
RFLRGYHQDAF [HLA-A_Y137_R138H_YF] | 1.66

Sequence | phosphorylation enrichment
HDKEYYSVHNK [MET_Y1235_Y1230H] | 1.24
ENSLDYGSAWA [AR_Y395_P392S] | 1.04
FFTEEYVRDHP [DOCK2_Y1555] | 0.989
DCAAIYGSEPE [AKR1A1_Y50_N52S] | 1.14
VGAKTYKMSMA [CPS1_Y309_A304V] | 0.645
AKFLGYPPPEI [KDR_Y357_YF] | 0.773
TEHMAYCPIQC [SHC4_Y403_Q400H] | 0.72
NLSVHYDSSLK [ABCC8_Y1353_R1352H] | 0.952
GGEEFYVHYVG [KAT8_Y90_R86G] | 1.32
QKKEEYKMALF [F8_Y1990_R1985Q_YF] | 0.736
GKLIFHDLRGE [KARS1_Y145_Y145H] | 0.696
HDRGNYVRLNM [RECQL4_Y353] | 0.944
RHPLEYLRQFP [NARS2_Y138_YF] | 0.605
RCQDLYSARDL [SART1_Y249_R245C] | 1.95
IEEGTYGVAFR [CDK11B_Y449_V452A_YF] | 1.32
SEKVVYQRFTE [NCF1_Y41_R42Q] | 0.675

Target: EPHB1 (UniProt P54762)
Experiment: as above

EPHB1, sequence (P54762 whole entry, looked up): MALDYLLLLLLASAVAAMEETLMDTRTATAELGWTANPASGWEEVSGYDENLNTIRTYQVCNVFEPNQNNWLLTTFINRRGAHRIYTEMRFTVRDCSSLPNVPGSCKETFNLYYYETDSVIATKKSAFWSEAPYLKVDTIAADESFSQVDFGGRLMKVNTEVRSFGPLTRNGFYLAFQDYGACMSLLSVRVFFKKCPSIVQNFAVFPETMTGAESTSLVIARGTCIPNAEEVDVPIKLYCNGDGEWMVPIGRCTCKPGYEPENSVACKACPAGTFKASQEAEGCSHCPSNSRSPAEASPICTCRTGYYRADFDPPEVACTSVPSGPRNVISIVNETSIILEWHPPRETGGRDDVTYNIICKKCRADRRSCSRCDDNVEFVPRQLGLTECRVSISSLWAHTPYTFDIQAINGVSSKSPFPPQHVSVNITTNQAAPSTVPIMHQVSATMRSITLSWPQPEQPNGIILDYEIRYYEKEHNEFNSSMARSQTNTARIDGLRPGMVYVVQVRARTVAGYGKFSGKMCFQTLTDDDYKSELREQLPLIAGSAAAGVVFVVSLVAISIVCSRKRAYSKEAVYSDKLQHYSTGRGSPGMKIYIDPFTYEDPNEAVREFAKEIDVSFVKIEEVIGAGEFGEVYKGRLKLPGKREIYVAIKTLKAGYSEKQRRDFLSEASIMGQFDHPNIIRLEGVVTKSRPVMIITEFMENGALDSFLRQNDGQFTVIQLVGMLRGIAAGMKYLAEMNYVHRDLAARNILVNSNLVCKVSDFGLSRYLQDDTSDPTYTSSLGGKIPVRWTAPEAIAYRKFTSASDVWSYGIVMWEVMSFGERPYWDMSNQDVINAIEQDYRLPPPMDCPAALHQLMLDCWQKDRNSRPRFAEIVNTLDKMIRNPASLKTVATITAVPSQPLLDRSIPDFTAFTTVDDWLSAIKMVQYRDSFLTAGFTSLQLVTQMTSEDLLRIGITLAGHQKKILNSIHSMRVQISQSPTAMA

Sequence | phosphorylation enrichment
VECHLYFTQPK [AKR1D1_Y199_P198L] | 0.717
AAPAAYDAADT [GAMT_Y27] | 0.479
VVCKNYAEAKD [ALB_Y343_D338V] | 0.515
KRTFEYEADKN [DENND2B_Y396] | 0.545
CRWKRYQRSHD [GDPD5_Y30] | 0.458
FNNFGYGSDGF [HNRNPH3_Y161_N163S_YF] | 0.527
WFKKFYDANCD [MAPRE2_Y158_Y162C] | 0.77
LIGWRYDDPEV [HSPA9_Y128_R126W] | 0.544
KITVIYDGACQ [VWDE_Y1035] | 0.599
CQNRFYDAKVR [FKBP6_Y188_R183C] | 0.445
ATVQNYLPKCI [A2M_Y817_L815Q] | 0.39
RHPEVYHHLGV [NVL_Y290] | 2.11
LQRCKNSHMEP [TEX45_Y434_Y434N] | 0.939
GKVFVYHGSSL [ITGA7_Y458_I457V] | 0.564
KQCSDYARELE [MYH3_Y1140_R1137C] | 0.597
LDLSYYTTSSS [EMD_Y182_P183T] | 0.978
RFLRGYHQDAF [HLA-A_Y137_R138H_YF] | 0.591

Sequence | phosphorylation enrichment
HDKEYYSVHNK [MET_Y1235_Y1230H] | 0.714
ENSLDYGSAWA [AR_Y395_P392S] | 0.486
FFTEEYVRDHP [DOCK2_Y1555] | 0.486
DCAAIYGSEPE [AKR1A1_Y50_N52S] | 0.572
VGAKTYKMSMA [CPS1_Y309_A304V] | 0.437
AKFLGYPPPEI [KDR_Y357_YF] | 0.474
TEHMAYCPIQC [SHC4_Y403_Q400H] | 0.489
NLSVHYDSSLK [ABCC8_Y1353_R1352H] | 0.579
GGEEFYVHYVG [KAT8_Y90_R86G] | 0.627
QKKEEYKMALF [F8_Y1990_R1985Q_YF] | 0.645
GKLIFHDLRGE [KARS1_Y145_Y145H] | 0.475
HDRGNYVRLNM [RECQL4_Y353] | 2.3
RHPLEYLRQFP [NARS2_Y138_YF] | 0.372
RCQDLYSARDL [SART1_Y249_R245C] | 1.63
IEEGTYGVAFR [CDK11B_Y449_V452A_YF] | 0.888
SEKVVYQRFTE [NCF1_Y41_R42Q] | 0.457
